From the supplement of paper PMC10126150
± gives the standard deviation of the averaged measurements.

These sequences were tested on ATP (assay: switch fluorescence ratio, 500 uM ATP over buffer (Cy3 cluster intensity, sum of 5 cycles each) (fold (ratio)); higher = stronger signal-on switching upon ATP binding; sequences stand for … in TCGTCGGCAGCGTCAGATGTGTATAAGAGACAGTTTTTTTTTTTTTTTTTTTTTTTTT…TC). Settings: aptamer strand: ATP DNA aptamer (quencher-CACCTGGGGGAGTATTGCGGAGGAAGG + anchor), 100 nM annealed; ATP concentration: 500 uM.
In short: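 Exposure to 500 uM ATP lasted 15 min at 22 °C before imaging, and a selection-buffer image was taken beforehand, for Cy3-labelled switching-strand clusters on a modified Illumina MiSeq flow-cell annealed to 100 nM quencher-labelled ATP aptamer. Five buffer/ATP cycles were run with NaOH stripping and re-annealing between them. The fluorescence ratio per cluster is summed target-cycle over summed buffer-cycle Cy3 intensity, averaged per switch-domain sequence. Clusters outside 100-1000 RFU were excluded.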

Row | Sequence | switch fluorescence ratio
1 | CCAGTGAGTC | 1.07 ± 0.041
2 | CCAGTTGATG | 0.991 ± 0.057
3 | CCAGTTTACT | 1.01 ± 0.042
4 | CCAGTTTGGT | 0.9871 ± 0.0073
5 | CCAGTTTGTG | 1.018 ± 0.0037
6 | CCAGTTTTTC | 1.01 ± 0.019
7 | CCAGTTTTTT | 1.002 ± 0.0099
8 | CCATACGTCA | 1.25 ± 0.054
9 | CCATACTTAT | 1.042 ± 0.0059
10 | CCATAGCAGG | 3.97 ± 0.9
11 | CCATAGCTCA | 2.016 ± 0.016
12 | CCATAGTGAC | 2.18 ± 0.18
13 | CCATATAGGC | 1.03 ± 0.065
14 | CCATCATAGG | 1.0149 ± 0.00068
15 | CCATCATTTT | 0.99 ± 0.041
16 | CCATCGGTGG | 1 ± 0.047
17 | CCATCGTATG | 0.971 ± 0.015
18 | CCATGAAAAT | 1.029 ± 0.003
19 | CCATGGAGTA | 1 ± 0.019
20 | CCATGGCGGG | 0.97 ± 0.028
21 | CCATGGCTGG | 1 ± 0.016
22 | CCATGGGGGA | 1.01 ± 0.0019
23 | CCATGGTACG | 1.051 ± 0.01
24 | CCATGTGTG | 1.02 ± 0.024
25 | CCATGTTAAG | 0.985 ± 0.02

Row | Sequence | switch fluorescence ratio
26 | CCATGTTGCG | 0.982 ± 0.012
27 | CCATTCCCAT | 1.26 ± 0.28
28 | CCATTGTAAG | 1.02 ± 0.05
29 | CCATTGTAGT | 0.99 ± 0.013
30 | CCATTGTGAC | 1.06 ± 0.018
31 | CCATTGTGCA | 1.01 ± 0.013
32 | CCCAATTTGA | 1.06 ± 0.014
33 | CCCAGAGTTC | 1.06 ± 0.023
34 | CCCAGATTTT | 1.02 ± 0.03
35 | CCCAGTCAGA | 1.033 ± 0.0078
36 | CCCAGTTTGG | 1.01 ± 0.015
37 | CCCATCCGGT | 1.12 ± 0.023
38 | CCCATGCGTT | 1.03 ± 0.063
39 | CCCATGGGGG | 1.01 ± 0.028
40 | CCCATTTAGG | 1.04 ± 0.084
41 | CCCATTTTTT | 1 ± 0.049
42 | CCCCAAAAGT | 1.12 ± 0.14
43 | CCCCAATTT | 0.999 ± 0.025
44 | CCCCACGGCC | 1.16 ± 0.028
45 | CCCCAGGGGG | 3.38 ± 2.3
46 | CCCCCGGTTT | 1.12 ± 0.044
47 | CCCCGGTTA | 1.46 ± 0.12
48 | CCCCTCGAGG | 0.966 ± 0.049
49 | CCCGATCATA | 1.02 ± 0.017
50 | CCCGCAGTGT | 4.3 ± 1.4

Row | Sequence | switch fluorescence ratio
51 | CCCGGGGCTG | 1.024 ± 0.0073
52 | CCCGGTATAT | 1.22 ± 0.12
53 | CCCGGTTTTA | 1.06 ± 0.12
54 | CCCGTAGGCT | 0.973 ± 0.014
55 | CCCTGGGTCT | 1.028 ± 0.0089
56 | CCCTTGCGGT | 1.03 ± 0.047
57 | CCCTTTTTTT | 1.07 ± 0.037
58 | CCGAAGGGGA | 1.65 ± 0.88
59 | CCGAATCGGA | 1.02 ± 0.054
60 | CCGAATTCT | 1.13 ± 0.029
61 | CCGACCTGTA | 1.94 ± 0.22
62 | CCGAGATCGT | 1.02 ± 0.033
63 | CCGAGGAGAG | 1.1 ± 0.037
64 | CCGATAGGCA | 1.124 ± 0.0038
65 | CCGATAGGGG | 1.05 ± 0.093
66 | CCGCAGAGCA | 1.79 ± 0.043
67 | CCGCATTGGT | 4.77 ± 0.66
68 | CCGCCAGGGG | 3.42 ± 1.8
69 | CCGCCATAAG | 3.42 ± 0.68
70 | CCGCCTTAAT | 2.21 ± 0.084
71 | CCGCGACAGG | 3.04 ± 0.22
72 | CCGCGGCGAA | 1.47 ± 0.22
73 | CCGCGGGGTT | 1.2 ± 0.084
74 | CCGCGGGTCG | 1.046 ± 0.0013
75 | CCGCGTACGG | 2.03 ± 0.22

Row | Sequence | switch fluorescence ratio
76 | CCGCGTTATG | 1.67 ± 0.078
77 | CCGCTAAGGT | 1.39 ± 0.092
78 | CCGCTACTGT | 2.69 ± 0.39
79 | CCGCTCAGTT | 1.355 ± 0.0058
80 | CCGCTCGATG | 1.37 ± 0.023
81 | CCGCTTGGTT | 1.23 ± 0.028
82 | CCGCTTTGTT | 1.24 ± 0.072
83 | CCGGAAAAAG | 1.02 ± 0.074
84 | CCGGAAAGAG | 1.06 ± 0.02
85 | CCGGACAGCG | 0.99 ± 0.038
86 | CCGGACAGTG | 1.09 ± 0.099
87 | CCGGACGTTC | 1.53 ± 0.042
88 | CCGGAGGTCG | 0.958 ± 0.012
89 | CCGGATCGGC | 1.04 ± 0.029
90 | CCGGATTATA | 1.046 ± 0.0059
91 | CCGGATTTTG | 0.981 ± 0.012
92 | CCGGCCGGGG | 1.01 ± 0.059
93 | CCGGCGGTTT | 1.04 ± 0.029
94 | CCGGCTTGCT | 1.03 ± 0.036
95 | CCGGCTTTAG | 0.99 ± 0.015
96 | CCGGGAGAAA | 1.28 ± 0.02
97 | CCGGGAGGTA | 0.991 ± 0.021
98 | CCGGGCTGGG | 1.03 ± 0.018
99 | CCGGGGAACG | 1.08 ± 0.048
100 | CCGGGGAATG | 1.04 ± 0.052

Row | Sequence | switch fluorescence ratio
101 | CCGGGGAGGA | 1.06 ± 0.026
102 | CCGGGGAGGG | 1.08 ± 0.053
103 | CCGGGGATTG | 1.01 ± 0.027
104 | CCGGGGCTGG | 1.04 ± 0.037
105 | CCGGGGCTTT | 1.17 ± 0.021
106 | CCGGGGGAAC | 1.14 ± 0.09
107 | CCGGGGGACA | 1.1 ± 0.17
108 | CCGGGGGATC | 1.1 ± 0.017
109 | CCGGGGGCTA | 2.69 ± 1.9
110 | CCGGGGGGAG | 1.02 ± 0.045
111 | CCGGGGGGCC | 1.08 ± 0.038
112 | CCGGGGTCGT | 1.02 ± 0.012
113 | CCGGGGTCTG | 0.995 ± 0.035
114 | CCGGGTCTTT | 1.002 ± 0.0064
115 | CCGGGTTTTT | 1.12 ± 0.13
116 | CCGGTCAGTG | 1.066 ± 0.0088
117 | CCGGTTGCTG | 1.12 ± 0.066
118 | CCGTAAAACT | 2.46 ± 1.2
119 | CCGTATATAT | 2.55 ± 0.096
120 | CCGTCAACTA | 1.96 ± 0.22
121 | CCGTCATCTT | 1.024 ± 0.0072
122 | CCGTCGGGGT | 1.09 ± 0.025
123 | CCGTGGCGTG | 1.01 ± 0.033
124 | CCGTGGCTGT | 1.31 ± 0.068
125 | CCGTGGGATG | 0.986 ± 0.031

Row | Sequence | switch fluorescence ratio
126 | CCGTGGGGGT | 1.054 ± 0.0029
127 | CCGTGTACGG | 0.999 ± 0.054
128 | CCGTGTAGGG | 1.01 ± 0.034
129 | CCGTTACCTG | 0.974 ± 0.015
130 | CCGTTAGCTT | 2.2 ± 0.079
131 | CCGTTGAGCG | 1.03 ± 0.03
132 | CCGTTGGGGT | 1.11 ± 0.13
133 | CCGTTGTAAG | 1.0184 ± 0.001
134 | CCGTTTGGTC | 1.02 ± 0.019
135 | CCGTTTGTGC | 1.21 ± 0.063
136 | CCGTTTTGCG | 1.02 ± 0.027
137 | CCTAAATTAT | 1.02 ± 0.035
138 | CCTAAATTTT | 1.01 ± 0.024
139 | CCTAACAGTT | 1.02 ± 0.0039
140 | CCTAACTAAA | 0.995 ± 0.028
141 | CCTAACTTAG | 1.021 ± 0.0029
142 | CCTAAGTGGG | 1.02 ± 0.034
143 | CCTAATAGGG | 0.9929 ± 0.0033
144 | CCTAATTTGG | 0.974 ± 0.031
145 | CCTACACTGG | 1.13 ± 0.048
146 | CCTACGTTT | 1.06 ± 0.063
147 | CCTAGAGGGT | 1.07 ± 0.024
148 | CCTAGCATGG | 2.05 ± 0.21
149 | CCTAGCGGTG | 1.12 ± 0.03
150 | CCTAGCTG | 1.02 ± 0.056

Row | Sequence | switch fluorescence ratio
151 | CCTAGGAGCC | 1.05 ± 0.026
152 | CCTAGGATTC | 1.01 ± 0.043
153 | CCTAGGGGTT | 1.09 ± 0.064
154 | CCTAGTACCG | 0.992 ± 0.069
155 | CCTAGTGGGG | 1.04 ± 0.06
156 | CCTATGATTG | 0.981 ± 0.023
157 | CCTATGGCGG | 1.07 ± 0.017
158 | CCTATTCTGA | 0.97 ± 0.068
159 | CCTCCAGGTT | 3.69 ± 3.2
160 | CCTCGGTGCG | 1.02 ± 0.0087
161 | CCTCGTTTTT | 1.11 ± 0.053
162 | CCTCTATTCA | 1.06 ± 0.019
163 | CCTCTATTGG | 1.045 ± 0.0041
164 | CCTCTTAACT | 1.13 ± 0.037
165 | CCTCTTCATA | 2.54 ± 0.28
166 | CCTCTTTTTT | 1.1 ± 0.035
167 | CCTGAATTTC | 1.12 ± 0.14
168 | CCTGACTTTC | 1.11 ± 0.045
169 | CCTGACTTTG | 0.972 ± 0.043
170 | CCTGAGGGCG | 1.037 ± 0.01
171 | CCTGAGTCGT | 1.09 ± 0.017
172 | CCTGATGCGG | 1.02 ± 0.059
173 | CCTGCAGAGC | 1.28 ± 0.058
174 | CCTGCATGTG | 1.26 ± 0.02
175 | CCTGCCCTGT | 1.108 ± 0.0022

Row | Sequence | switch fluorescence ratio
176 | CCTGCCTCCT | 2.27 ± 0.041
177 | CCTGCGTTTT | 1.75 ± 0.32
178 | CCTGCTCATC | 1.99 ± 0.22
179 | CCTGCTGGCG | 1.04 ± 0.12
180 | CCTGGATGTA | 1.02 ± 0.025
181 | CCTGGATTAG | 1.05 ± 0.041
182 | CCTGGATTCA | 0.9888 ± 0.002
183 | CCTGGATTTA | 1.01 ± 0.011
184 | CCTGGCTGAT | 1.11 ± 0.058
185 | CCTGGCTTGA | 0.996 ± 0.016
186 | CCTGGGAGGA | 1.012 ± 0.0014
187 | CCTGGGCGTC | 1.037 ± 0.004
188 | CCTGGGGCGG | 1.07 ± 0.019
189 | CCTGGGGGAA | 1.025 ± 0.0073
190 | CCTGGGGGAG | 1.05 ± 0.11
191 | CCTGGGGGGG | 1.03 ± 0.05
192 | CCTGGGGTCT | 1.03 ± 0.015
193 | CCTGGGGTTG | 1.05 ± 0.14
194 | CCTGGGTCTG | 1.001 ± 0.006
195 | CCTGGGTGTG | 1.05 ± 0.11
196 | CCTGTAAATG | 1.15 ± 0.21
197 | CCTGTCTTCT | 0.9869 ± 0.0061
198 | CCTGTGATTC | 1.23 ± 0.058
199 | CCTGTGCCCG | 1.01 ± 0.041
200 | CCTGTTTATT | 0.974 ± 0.012
